This is an account of results in patent US20100184047A1, “SCREENING AND THERAPEUTIC METHOD FOR NSCLC TARGETING THE CDCA8-AURKB COMPLEX” (ONCOTHERAPY SCIENCE, INC., priority 2007, published 2010).

Residues, ends and D or L forms follow the SMILES beside them.

The test system of one series is MRC5 cells. Briefly: MTT assay with 11R-peptides on normal lung fibroblasts. The series is classed as cell-based. As to conditions: MRC5, normal human lung fibroblast derived; CDCA8 and AURKB hardly detectable.
The subject of a further series is BEAS-2B cells. Briefly: MTT assay with 11R-peptides on bronchial epithelia derived cells. As to conditions: human bronchial epithelia derived, CDCA8 and AURKB hardly detectable. The series is classed as cell-based. Here is the method:
LC319, SBC-5 cells and BEAS-2B cells were incubated with the 11R-peptides at the concentration of 2.5 micromoles, 5 micromoles, and 7.5 micromoles for seven days. The medium was exchanged at every 48 hours at the appropriate concentrations of each peptide and the viability of cells was evaluated by MTT assay at 7 days after the treatment. To confirm the transduction efficiency of the peptides, the 11R-CDCA8261-280 and its control peptides labeled with fluorescein isothiocyanate (FITC) at N-terminus were synthesized. Transduction of the peptides (2.5-7.5 micromoles) was monitored by fluorescence microscopic observation after a 3-hour incubation of the peptides with the cell lines at 37 degrees C.
A general note: Tetrazolium assays rely on reduction of a dye to a coloured formazan, in cell work by metabolically active cells.

The subject of the next series is CCD19-Lu cells. Briefly: Cell viability with 11R-peptides on normal lung fibroblasts. The series is classed as cell-based. As to conditions: normal human lung fibroblast derived, CDCA8 and AURKB hardly detectable.
For the next series, the target named is T1, CDCA8delta9.
T1 chain: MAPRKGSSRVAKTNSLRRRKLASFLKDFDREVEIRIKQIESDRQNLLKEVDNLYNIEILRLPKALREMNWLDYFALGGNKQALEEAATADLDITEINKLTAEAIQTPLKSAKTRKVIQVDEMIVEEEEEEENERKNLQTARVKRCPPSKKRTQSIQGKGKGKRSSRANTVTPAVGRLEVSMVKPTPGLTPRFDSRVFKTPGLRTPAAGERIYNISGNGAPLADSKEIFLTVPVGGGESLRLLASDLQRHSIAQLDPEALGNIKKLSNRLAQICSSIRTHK

The target in the next series is T2, CDCA8delta13.
T2 chain: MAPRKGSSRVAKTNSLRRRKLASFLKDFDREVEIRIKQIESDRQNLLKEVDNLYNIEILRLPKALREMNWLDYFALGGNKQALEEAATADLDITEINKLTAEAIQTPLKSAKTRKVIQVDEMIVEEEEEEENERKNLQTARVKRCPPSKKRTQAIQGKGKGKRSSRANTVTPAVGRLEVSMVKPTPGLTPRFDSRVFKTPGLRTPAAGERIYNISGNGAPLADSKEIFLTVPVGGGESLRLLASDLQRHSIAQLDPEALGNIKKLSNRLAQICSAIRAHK

For series [1], the target named is T3, full-length recombinant CDCA8 protein (wild-type, N-terminal His tag).
T3 chain: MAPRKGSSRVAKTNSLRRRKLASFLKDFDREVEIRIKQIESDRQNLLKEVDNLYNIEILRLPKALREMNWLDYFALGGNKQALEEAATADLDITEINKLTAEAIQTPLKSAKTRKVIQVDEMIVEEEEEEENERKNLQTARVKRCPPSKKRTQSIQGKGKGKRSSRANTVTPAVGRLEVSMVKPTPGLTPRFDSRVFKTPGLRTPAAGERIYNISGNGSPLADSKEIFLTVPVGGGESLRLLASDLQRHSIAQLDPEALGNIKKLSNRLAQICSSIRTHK

A further series deals with T4, CDCA8delta12.
T4 chain: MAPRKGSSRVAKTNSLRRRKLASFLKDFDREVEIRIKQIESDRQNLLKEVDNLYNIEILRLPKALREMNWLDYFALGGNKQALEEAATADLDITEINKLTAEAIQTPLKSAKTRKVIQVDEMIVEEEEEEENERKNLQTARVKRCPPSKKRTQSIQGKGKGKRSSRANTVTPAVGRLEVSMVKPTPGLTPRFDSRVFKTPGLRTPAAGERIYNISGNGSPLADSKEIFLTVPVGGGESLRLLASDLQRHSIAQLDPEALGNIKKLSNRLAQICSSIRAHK

The target in a further series is T5, CDCA8delta8.
T5 chain: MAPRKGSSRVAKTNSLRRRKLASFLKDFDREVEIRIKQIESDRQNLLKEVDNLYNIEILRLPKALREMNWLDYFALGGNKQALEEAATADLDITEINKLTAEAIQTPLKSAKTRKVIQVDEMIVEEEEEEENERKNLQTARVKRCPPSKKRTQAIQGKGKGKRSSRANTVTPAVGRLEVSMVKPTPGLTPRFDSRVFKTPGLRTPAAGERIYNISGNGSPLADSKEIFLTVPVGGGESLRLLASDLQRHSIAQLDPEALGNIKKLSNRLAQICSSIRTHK

The next series addresses T6, 11R-CDCA8261-280.
T6 chain: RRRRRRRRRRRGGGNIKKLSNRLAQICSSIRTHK

Another series deals with T7, CDCA8delta11.
T7 chain: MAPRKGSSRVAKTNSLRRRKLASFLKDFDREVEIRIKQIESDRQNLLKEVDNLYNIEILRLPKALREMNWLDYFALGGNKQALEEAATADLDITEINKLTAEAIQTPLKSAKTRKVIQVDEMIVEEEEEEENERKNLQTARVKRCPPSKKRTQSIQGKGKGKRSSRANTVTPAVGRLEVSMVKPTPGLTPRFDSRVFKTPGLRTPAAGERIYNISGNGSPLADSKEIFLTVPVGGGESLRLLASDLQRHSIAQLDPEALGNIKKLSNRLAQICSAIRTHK

Consider `CC[C@H](C)[C@H](NC(=O)[C@H](CC(N)=O)NC(=O)CNC(=O)CNC(=O)CNC(=O)[C@H](CCCNC(=N)N)NC(=O)[C@H](CCCNC(=N)N)NC(=O)[C@H](CCCNC(=N)N)NC(=O)[C@H](CCCNC(=N)N)NC(=O)[C@H](CCCNC(=N)N)NC(=O)[C@H](CCCNC(=N)N)NC(=O)[C@H](CCCNC(=N)N)NC(=O)[C@H](CCCNC(=N)N)NC(=O)[C@H](CCCNC(=N)N)NC(=O)[C@H](CCCNC(=N)N)NC(=O)[C@@H](N)CCCNC(=N)N)C(=O)N[C@@H](CCCCN)C(=O)N[C@@H](CCCCN)C(=O)N[C@@H](CC(C)C)C(=O)N[C@@H](CO)C(=O)N[C@@H](CC(N)=O)C(=O)N[C@@H](CCCNC(=N)N)C(=O)N[C@@H](CC(C)C)C(=O)N[C@@H](C)C(=O)N[C@@H](CCC(N)=O)C(=O)N[C@H](C(=O)N[C@@H](CS)C(=O)N[C@@H](CO)C(=O)N[C@@H](CO)C(=O)N[C@H](C(=O)N[C@@H](CCCNC(=N)N)C(=O)N[C@H](C(=O)N[C@@H](Cc1c[nH]cn1)C(=O)N[C@@H](CCCCN)C(=O)O)[C@@H](C)O)[C@@H](C)CC)[C@@H](C)CC` [11R-CDCA8261-280] (H-RRRRRRRRRRRGGGNIKKLSNRLAQICSSIRTHK-OH), for which the “cell viability of normal cells” value in the series on MRC5 cells is “no off-target effect”; in the series on BEAS-2B cells, “no significant growth suppressive effect”; with CCD19-Lu cells, “no effect”.

B1: recombinant AURKB (Catalog No. 14-489; upstate) (protein)
chain: MAQKENSYPWPYGRQTAPSGLSTLPQRVLRKEPVTPSALVLMSRSNVQPTAAPGQKVMENSSGTPDILTRHFTIDDFEIGRPLGKGKFGNVYLAREKKSHFIVALKVLFKSQIEKEGVEHQLRREIEIQAHLHHPNILRLYNYFYDRRRIYLILEYAPRGELYKELQKSCTFDEQRTATIMEELADALMYCHGKKVIHRDIKPENLLLGLKGELKIADFGWSVHAPSLRRKTMCGTLDYLPPEMIEGRMHNEKVDLWCIGVLCYELLVGNPPFESASHNETYRRIVKVDLKFPASVPMGAQDLISKLLRHNPSERLPLAQVSAHPWVRANSRRVLPPSALQSVA
On to B1, for which the “phosphorylation level in in vitro kinase assay” value with CDCA8delta9 is on record as “revealed the reduction of phosphorylation levels in four mutated-constructs”; in the series with CDCA8delta13, “complete disappearance of CDCA8 phosphorylation by AURKB”; in the series with CDCA8delta12, “revealed the reduction of phosphorylation levels in four mutated-constructs”; in the series with CDCA8delta1, “represented the same levels of phosphorylation compared to wild-type CDCA8”; with CDCA8delta7, “showed the same levels of phosphorylation compared with wild-type”; with CDCA8delta3 it was “represented the same levels of phosphorylation compared to wild-type CDCA8”. In addition, the “phosphorylation level in in vitro kinase assay” value was “a reduction of phosphorylation levels was detected in three mutated constructs (CDCA8delta2, -delta5, and -delta6), as compared to a wild-type” with CDCA8delta6; “represented the same levels of phosphorylation compared to wild-type CDCA8” with CDCA8delta4; “revealed the reduction of phosphorylation levels in four mutated-constructs” with CDCA8delta8; “a reduction of phosphorylation levels was detected in three mutated constructs (CDCA8delta2, -delta5, and -delta6), as compared to a wild-type” in the series with CDCA8delta5; “a reduction of phosphorylation levels was detected in three mutated constructs (CDCA8delta2, -delta5, and -delta6), as compared to a wild-type” with CDCA8delta2; “showed the same levels of phosphorylation compared with wild-type” with CDCA8delta10. Also, the “phosphorylation level in in vitro kinase assay” value with CDCA8delta11 is reported as “revealed the reduction of phosphorylation levels in four mutated-constructs”. In [1], the “in vitro phosphorylation ([gamma-32P] ATP kinase assay)” value is given as “CDCA8 was phosphorylated in an AURKB-dose-dependent manner”. Besides, the “phosphorylation level of rhCDCA8 by rhAURKB in in vitro kinase assay” value in the series with 11R-CDCA8261-280 is given as “the phosphorylation level of rhCDCA8 was significantly suppressed by the treatment with 11R-CDCA8261-280 peptides ... compared to its scramble peptides”.
